Laboratory results taken from the supplement of paper PMC10567573.

B1: MMP1 (parent)
chain: YTPDLPRADVDHAIEKAFQLWSNV
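Note: lentivirally expressed fusions sorted by FACS into six bins by GFP to DsRed ratio, PSI derived from sequencing read proportions per bin multiplied by bin number.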

Variants of: B1
Test: protein stability index of a GFP-peptide fusion (GPS, HEK-293T) (PSI 1-6); higher = more stable
Settings: c terminus: a fixed tail appended
In the case of YTPDLPRADEDHAIEKAFQLWSNV [V10E], the protein stability index is reported as 1.81. For YTPDLPNADVDHAIEKAFQLWSNV [R7N], the protein stability index was 1.64. YTPDLPVADVDHAIEKAFQLWSNV [R7V] showed a protein stability index of 2.12. With YTPDLPWADVDHAIEKAFQLWSNV [R7W] the protein stability index was 1.79. YTPDLPMADVDHAIEKAFQLWSNV [R7M] gave a protein stability index of 2.25. YTPDLPQADVDHAIEKAFQLWSNV [R7Q] gave a protein stability index of 1.92. With YTPDLPYADVDHAIEKAFQLWSNV [R7Y] the protein stability index was 1.08. For YTPDLPPADVDHAIEKAFQLWSNV [R7P], the protein stability index was 1.81. In the case of YTPDLPTADVDHAIEKAFQLWSNV [R7T], the protein stability index is reported as 1.88. YTPDLPSADVDHAIEKAFQLWSNV [R7S] showed a protein stability index of 1.75. For YTPDLPRADVDHWIEKAFQLWSNV [A13W], the protein stability index was 2.06. With YTPDLPRADVDHPIEKAFQLWSNV [A13P] the protein stability index was 1.58. YTPDLPRADVDHQIEKAFQLWSNV [A13Q] showed a protein stability index of 2.03. In the case of YTPDLPRADVDHGIEKAFQLWSNV [A13G], the protein stability index is reported as 3.15. Variant YTPDLPRADVDHLIEKAFQLWSNV [A13L] has a protein stability index of 1.63. For YTPDLPRADVDHMIEKAFQLWSNV [A13M], the protein stability index was 2.61. Variant YTPDLPRADVDHSIEKAFQLWSNV [A13S] has a protein stability index of 1.89. For YTPDLPRADVDHKIEKAFQLWSNV [A13K], the protein stability index was 2.1. With YTPDLPRADVDHHIEKAFQLWSNV [A13H] the protein stability index was 2.27. With YTPDLPRADVDHYIEKAFQLWSNV [A13Y] the protein stability index was 1.95. Work on YTPDLPRADVDHNIEKAFQLWSNV [A13N] yielded a protein stability index of 2.11. With YTPDLPRADVDHVIEKAFQLWSNV [A13V] the protein stability index was 2.79. For YTPDLPRADVDHIIEKAFQLWSNV [A13I], the protein stability index was 2.27. With YTPDLPRADVDHDIEKAFQLWSNV [A13D] the protein stability index was 1.71. With YTPDLPRADVDHRIEKAFQLWSNV [A13R] the protein stability index was 2.08. Variant YTPDLPRADVDHTIEKAFQLWSNV [A13T] has a protein stability index of 3. In the case of YTPDLPRADVDHEIEKAFQLWSNV [A13E], the protein stability index is reported as 2.19. YTPDLPRADVDHCIEKAFQLWSNV [A13C] showed a protein stability index of 1.93. YTPDLPRADVDHFIEKAFQLWSNV [A13F] showed a protein stability index of 1.79. With YTPDLPRADVDHAIEKEFQLWSNV [A17E] the protein stability index was 1.84. With YTPDLPRADVDHAIEKFFQLWSNV [A17F] the protein stability index was 1.97. YTPDLPRADVDHAIEKKFQLWSNV [A17K] gave a protein stability index of 1.44. In the case of YTPDLPRADVDHAIEKGFQLWSNV [A17G], the protein stability index is reported as 1.93. With YTPDLPRADVDHAIEKDFQLWSNV [A17D] the protein stability index was 1.97. YTPDLPRADVDHAIEKHFQLWSNV [A17H] gave a protein stability index of 2.68. With YTPDLPRADVDHAIEKIFQLWSNV [A17I] the protein stability index was 2.15. With YTPDLPRADVDHAIEKCFQLWSNV [A17C] the protein stability index was 1.83. For YTPDLPRGDVDHAIEKAFQLWSNV [A8G], the protein stability index was 2.83. For YTPDLPRIDVDHAIEKAFQLWSNV [A8I], the protein stability index was 1.88. YTPDLPRCDVDHAIEKAFQLWSNV [A8C] showed a protein stability index of 2.07. Variant YTPDLPRNDVDHAIEKAFQLWSNV [A8N] has a protein stability index of 1.41. YTPDLPRVDVDHAIEKAFQLWSNV [A8V] gave a protein stability index of 1.64. With YTPDLPRTDVDHAIEKAFQLWSNV [A8T] the protein stability index was 1.79. In the case of YTPDLPRKDVDHAIEKAFQLWSNV [A8K], the protein stability index is reported as 2.58. YTPDLPREDVDHAIEKAFQLWSNV [A8E] showed a protein stability index of 2.67. Work on YTPDLPRFDVDHAIEKAFQLWSNV [A8F] yielded a protein stability index of 2.94. Work on YTPDLPRYDVDHAIEKAFQLWSNV [A8Y] yielded a protein stability index of 1.93. In the case of YTPDLPRQDVDHAIEKAFQLWSNV [A8Q], the protein stability index is reported as 1.57. Work on YTPDLPRRDVDHAIEKAFQLWSNV [A8R] yielded a protein stability index of 1.67. YTPDLPRSDVDHAIEKAFQLWSNV [A8S] showed a protein stability index of 1.68. YTPDLPRWDVDHAIEKAFQLWSNV [A8W] showed a protein stability index of 1.87. Work on YTPDLPRDDVDHAIEKAFQLWSNV [A8D] yielded a protein stability index of 1.53. In the case of YTPDLPRMDVDHAIEKAFQLWSNV [A8M], the protein stability index is reported as 1.74. Variant YTPDLPRPDVDHAIEKAFQLWSNV [A8P] has a protein stability index of 1.51. Variant YTPDLPRLDVDHAIEKAFQLWSNV [A8L] has a protein stability index of 2.03. For YTPDLPRHDVDHAIEKAFQLWSNV [A8H], the protein stability index was 1.75. YTPDLPRADVDHAIPKAFQLWSNV [E15P] gave a protein stability index of 1.93. For YTPDLPRADVDHAITKAFQLWSNV [E15T], the protein stability index was 2.46. In the case of YTPDLPRADVDHAIDKAFQLWSNV [E15D], the protein stability index is reported as 1.58. Work on YTPDLPRADVDHAIHKAFQLWSNV [E15H] yielded a protein stability index of 2.09. Work on YTPDLPRADVDHAISKAFQLWSNV [E15S] yielded a protein stability index of 2.19. For YTPDLPRADVDHAIYKAFQLWSNV [E15Y], the protein stability index was 2.07. For YTPDLPRADVDHAIAKAFQLWSNV [E15A], the protein stability index was 1.46. Work on YTPDLPRADVDHAIRKAFQLWSNV [E15R] yielded a protein stability index of 2.73. Variant YTPDLPRADVDHAIIKAFQLWSNV [E15I] has a protein stability index of 2.53. YTPDLPRADVDHAILKAFQLWSNV [E15L] gave a protein stability index of 2.65. Variant YTPDLPRADVDHAIQKAFQLWSNV [E15Q] has a protein stability index of 1.46. Work on YTPDLPRADVDHAIGKAFQLWSNV [E15G] yielded a protein stability index of 2.54. YTPDLPRADVDHAINKAFQLWSNV [E15N] gave a protein stability index of 1.97. Work on YTPDLPRADVDHAIKKAFQLWSNV [E15K] yielded a protein stability index of 1.32. Work on YTPDLPRADVDHAIMKAFQLWSNV [E15M] yielded a protein stability index of 2.46. YTPDLPRADVDHAIVKAFQLWSNV [E15V] showed a protein stability index of 1.39. In the case of YTPDLPRADVDHAICKAFQLWSNV [E15C], the protein stability index is reported as 2.24. With YTPDLPRADVDHAIWKAFQLWSNV [E15W] the protein stability index was 1.83. YTPDLPRADVDHAIFKAFQLWSNV [E15F] showed a protein stability index of 2.56. Work on YTPDLPRADVDHAIEIAFQLWSNV [K16I] yielded a protein stability index of 2.71. Work on YTPDLPRADVDHAIEEAFQLWSNV [K16E] yielded a protein stability index of 1.76. Variant YTPDLPRADVDHAIEYAFQLWSNV [K16Y] has a protein stability index of 3.76. Work on YTPDLPRADVDHAIEGAFQLWSNV [K16G] yielded a protein stability index of 1.19. Variant YTPDLPRADVDHAIERAFQLWSNV [K16R] has a protein stability index of 1.8. Work on YTPDLPRADVDHAIENAFQLWSNV [K16N] yielded a protein stability index of 1.52. In the case of YTPDLPRADVDHAIEQAFQLWSNV [K16Q], the protein stability index is reported as 1.76. For YTPDLPRADVDHAIEDAFQLWSNV [K16D], the protein stability index was 1.71. Work on YTPDLPRADVDHAIEHAFQLWSNV [K16H] yielded a protein stability index of 2.06. YTPDLPRADVDHAIEWAFQLWSNV [K16W] gave a protein stability index of 3.17. In the case of YTPDLPRADVDHAIETAFQLWSNV [K16T], the protein stability index is reported as 2.03. YTPDLPRADVDHAIESAFQLWSNV [K16S] gave a protein stability index of 2. Work on YTPDLPRADVDHAIEFAFQLWSNV [K16F] yielded a protein stability index of 1.52. Variant YTPDLPRADVDHAIEVAFQLWSNV [K16V] has a protein stability index of 2.28. For YTPDLPRADVDHAIECAFQLWSNV [K16C], the protein stability index was 2.02. In the case of YTPDLPRADVDHAIEAAFQLWSNV [K16A], the protein stability index is reported as 2.07. YTPDLPRADVDHAIELAFQLWSNV [K16L] gave a protein stability index of 1.52. YTPDLPRADVDHAIEPAFQLWSNV [K16P] gave a protein stability index of 1.83. In the case of YTPDLPRADVDHAIEMAFQLWSNV [K16M], the protein stability index is reported as 1.54.
